Results from article PMC11459484.

Biological target: Selenomonas sp. HNH-Cascade Cas7 (Cas7f1) (Selenomonas sp.)
Assay: cryo-EM structure; SsCascade RNP (Cas5/6/7/8 and processed crRNA) co-expressed in E. coli, purified by Ni-NTA and gel filtration, mixed with target DNA at ambient temperature for 5 minutes; Map A 3.48 Å, Map B 3.28 Å

stoichiometry N: 6
Substance: Selenomonas sp. HNH-Cascade Cas7 (Cas7f1) (natural protein)
